Assay [1] addresses C-terminal deleted GST-BCL-2 (UniProt P10415). Kind of assay: direct fluorescence polarization.
Assay [2] shares this target. Kind of assay: direct fluorescence polarization, 25 nM fluoresceinated peptide with GST-BCL2 25-1000 nM.
For assay [3] the target is unchanged. Kind of assay: fluorescence polarization, displacement of prebound FITC-BID BH3 from BCL-2.
Assay [4] has the same target. Kind of assay: fluorescence polarization binding.
For assay [5] the target is unchanged. Kind of assay: fluorescence polarization, displacement of FITC-BID BH3 from BCL-2.
For assay [6] the target is unchanged. Kind of assay: fluorescence polarization competitive binding, FITC-BID BH3 as competitor.
Assay [7] shares this target. Kind of assay: fluorescence polarization direct binding.
The target of assay [8] is T1, Full-length BAX protein (UniProt Q07812 1-192, limits assumed).
T1 construct: mature
Description: BAX fluorescence polarization direct binding assay.
Description: Binding activity was measured by fluorescence polarization on a Perkin-Elmer LS50B luminescence spectrophotometer. KD values were determined by nonlinear regression analysis using Prism software (Graphpad).

The values that follow come from patent US9273099 (Dana-Farber, dated 2016).

Where no end group is shown, it is not given here. The star is where a group is joined. FITC = O=C1OC2(c3ccc(O)cc3Oc3cc(O)ccc32)c2ccc(NC(=S)*)cc21; βAla = NCCC(=O)O A value given as a limit tells only on which side of the number the result lay.

T1 sequence (Q07812 whole entry): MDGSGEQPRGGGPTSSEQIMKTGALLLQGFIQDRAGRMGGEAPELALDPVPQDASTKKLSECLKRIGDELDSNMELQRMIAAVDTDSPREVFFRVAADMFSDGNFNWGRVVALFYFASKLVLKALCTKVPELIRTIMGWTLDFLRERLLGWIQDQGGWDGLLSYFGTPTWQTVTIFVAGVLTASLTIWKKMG

As for FITC-SAHB3BIDA (peptide), in assay [1], the fold enhancement in binding affinity against unmodified BID BH3 was > 6 fold and the fold enhancement in binding affinity against unmodified BID BH3 peptide amounted to 6 fold. The same molecule yielded a dissociation constant Kd in assay [2] of 38.8 nM.
Take FITC-SAHB3BID(G→E)A (peptide): the Kd in assay [2] amounted to 483 nM.
Regarding “BAD BH3 domain peptide (from UniProt Q92934 103-127)”, in assay [3], the IC50 is 173 nM. For the same molecule, the Kd in assay [4] is 41 nM.
As to SAHB3BIDA (unlabeled) (peptide), in assay [5], the IC50 was determined as 62 nM and the fold increase in displacement potency against unmodified BID BH3 peptide was > 13 fold.
With SAHB3BID(tr)B (16-mer) (peptide), the fold drop against the 23-mer SAHB3BIDB in assay [6] is > 6 fold.

B1: FITC-labeled unmodified BID BH3 peptide (peptide, UniProt P55957 80-101, looked up)
peptide: {FITC-βAla}-EDIIRNIARHLAQVGDSMDRSI
notes: domain: BH3; also called FITC-BID BH3; FITC-labeled BID BH3 peptide
B1 yielded a Kd in assay [7] of 220 nM. For the same molecule, the binding result in assay [8] is listed as “no binding”.
